The source of these data is PMC8327350, “Interaction between the transmembrane domains of neurotrophin receptors p75 and TrkA mediates their reciprocal activation” (The Journal of Biological Chemistry, 2021).

No end group written: not given here.

A word on the stoichiometry N: it is a count of units in the complex or per binding partner.

The chains are these.
B1: p75-TM-C257A (C257A point mutant form of p75TM) (domain or fragment, human)
chain: MTRGTTDNLIPVYASILAAVVVGLVAYIAFKRWNSSKQNKQ
modifications: also: 15N-labeled in one set, unlabeled in the other
notes: methionine printed before T245; Seen as monomer, noncovalent homodimer and heterodimer with TrkA-TM in the NMR samples; also called p75-C257A; p75-C257A-TM; source: cell-free expression (E. coli Rosetta(DE3)pLysS S30 extract), in DPC micelles

The target in series [1] is full-length TrkA tagged with mTurquoise (UniProt P04629).
Chain of full-length TrkA tagged with mTurquoise (P04629 33-796): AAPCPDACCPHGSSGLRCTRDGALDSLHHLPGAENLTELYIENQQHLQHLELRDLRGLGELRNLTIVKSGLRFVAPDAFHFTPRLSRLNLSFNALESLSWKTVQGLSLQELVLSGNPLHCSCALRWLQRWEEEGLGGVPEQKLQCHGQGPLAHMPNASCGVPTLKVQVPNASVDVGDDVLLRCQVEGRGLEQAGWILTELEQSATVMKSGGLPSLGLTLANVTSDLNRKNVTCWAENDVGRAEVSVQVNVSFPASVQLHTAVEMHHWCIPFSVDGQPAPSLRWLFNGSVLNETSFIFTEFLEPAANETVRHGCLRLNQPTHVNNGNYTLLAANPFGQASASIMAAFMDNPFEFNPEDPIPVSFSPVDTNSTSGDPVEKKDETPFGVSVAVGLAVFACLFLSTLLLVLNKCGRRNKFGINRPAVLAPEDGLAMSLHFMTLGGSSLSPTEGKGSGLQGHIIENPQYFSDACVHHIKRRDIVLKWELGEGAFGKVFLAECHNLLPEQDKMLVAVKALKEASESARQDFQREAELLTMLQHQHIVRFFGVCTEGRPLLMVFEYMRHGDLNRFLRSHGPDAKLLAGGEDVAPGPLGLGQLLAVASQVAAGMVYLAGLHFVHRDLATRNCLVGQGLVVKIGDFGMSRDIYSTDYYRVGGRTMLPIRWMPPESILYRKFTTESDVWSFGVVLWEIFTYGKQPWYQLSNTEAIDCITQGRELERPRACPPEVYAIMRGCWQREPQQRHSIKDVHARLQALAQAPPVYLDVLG
Series [2] concerns the molecule itself. In words: NMR cross-correlated relaxation (rotational correlation time, hydrodynamic radius); cross-correlated relaxation rates of p75-TM-C257A amide signals (I259, V263, G266, A269, Y270) of monomer, homodimer and heterodimer in DPC micelles, 45 °C.
Series [3] deals with the molecule itself. Briefly: NMR titration; unlabeled p75-TM-C257A added incrementally to 0.5 mM 15N-labeled TrkA-TM; DPC micelles, LPR 80, pH 5.9, 318 K, 20 mM sodium phosphate.
The target in series [4] is B1. Briefly: NMR cross-correlated relaxation (rotational correlation time, hydrodynamic radius); cross-correlated relaxation rates of p75-TM-C257A amide signals (I259, V263, G266, A269, Y270) of monomer, homodimer and heterodimer in DPC micelles, 45 °C. The following applies: both partners purified.

Turning to “full-length p75 tagged with enhanced YFP (from UniProt P08138 29-427) (receptor)”, in series [1], the EC50 of NGF for TrkA phosphorylation (activation loop, Western blot) in HeLa cells coexpressing TrkA and p75, NGF 0 to 100 ng/ml came to 0.299 nM.
“p75-TNFR (p75 with its TMD swapped with the one from the TNFR) (from UniProt P08138 29-427) (receptor)”: the EC50 of NGF for TrkA phosphorylation (activation loop, Western blot) in HeLa cells coexpressing TrkA and p75-TNFR, NGF 0 to 100 ng/ml in series [1] is 2.7 nM.
“p75–AGA mutation (triple mutation A262,G266,A269 to Ile) (from UniProt P08138 29-427) (receptor)”: the EC50 of NGF for TrkA phosphorylation (activation loop, Western blot) in HeLa cells coexpressing TrkA and p75–AGA, NGF 0 to 100 ng/ml in series [1] is 1.7 nM.
For the molecule B1, in series [2], the “stoichiometry N” value is 2 chains in the oligomer (homodimer).

B2: human TrkA-TM (domain or fragment)
chain: MKKDETPFGVSVAVGLAVFACLFLSTLLLVLNKAGRRNK
modifications: also: 15N-labeled in one set, unlabeled in the other
notes: methionine printed before K410; human TrkA transmembrane domain, K410 to K447; the A at 442 is printed underlined and not explained; also called TrkA-TM-wt; TrkA-TMD; source: cell-free expression (E. coli Rosetta(DE3)pLysS S30 extract), in DPC micelles
In the case of B2, in series [3], the binding result was “binds”. Further, in series [4], the “stoichiometry N” value is 1 TrkA-TM per p75-TM-C257A (heterodimer).
